Assays:
[1] = target: T1, RIG-I R109A/L110A (CARD2-Hel2i interface mutant) (human, UniProt O95786 1-925, R109A;L110A); assay: ATPase titration (Kd,app); ATP, 15 C; Buffer A (composition not in the material; 150 mM NaCl stated for some supplementary assays); anisotropy at 15 C with 1-2 nM (blunt) or 40 nM (non-blunt) labell; conditions: protein: recombinant, tags: N-terminal SUMO fusion construct, His (Ni-NTA)
T1 sequence: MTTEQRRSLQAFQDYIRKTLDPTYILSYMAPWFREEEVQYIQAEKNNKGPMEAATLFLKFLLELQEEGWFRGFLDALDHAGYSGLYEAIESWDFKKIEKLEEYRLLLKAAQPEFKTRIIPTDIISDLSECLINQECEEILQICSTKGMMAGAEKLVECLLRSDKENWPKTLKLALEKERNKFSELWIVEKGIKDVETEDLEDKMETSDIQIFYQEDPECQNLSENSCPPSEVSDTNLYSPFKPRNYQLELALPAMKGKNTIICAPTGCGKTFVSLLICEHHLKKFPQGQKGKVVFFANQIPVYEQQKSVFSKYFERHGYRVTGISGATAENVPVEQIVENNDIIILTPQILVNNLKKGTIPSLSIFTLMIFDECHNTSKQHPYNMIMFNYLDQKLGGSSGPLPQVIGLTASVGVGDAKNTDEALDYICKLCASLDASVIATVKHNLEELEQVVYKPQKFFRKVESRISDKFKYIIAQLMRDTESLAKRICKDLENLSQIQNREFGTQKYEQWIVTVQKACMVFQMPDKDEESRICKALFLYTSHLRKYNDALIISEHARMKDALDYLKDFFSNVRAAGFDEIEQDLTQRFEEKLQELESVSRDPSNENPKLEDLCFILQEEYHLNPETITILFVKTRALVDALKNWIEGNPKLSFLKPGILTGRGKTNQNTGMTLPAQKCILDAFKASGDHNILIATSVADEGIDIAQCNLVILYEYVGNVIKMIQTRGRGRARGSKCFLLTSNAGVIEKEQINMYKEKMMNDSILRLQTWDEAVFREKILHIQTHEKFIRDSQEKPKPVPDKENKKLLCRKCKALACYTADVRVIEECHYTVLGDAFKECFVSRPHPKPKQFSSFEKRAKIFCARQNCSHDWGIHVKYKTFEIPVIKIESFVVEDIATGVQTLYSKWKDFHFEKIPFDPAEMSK

[2] = target: T2, Helicase-RD (RIG-I lacking CARDs) (human, UniProt O95786 232-925); assay: as above; conditions: protein: recombinant, tags: N-terminal SUMO fusion construct, His (Ni-NTA)
T2 sequence: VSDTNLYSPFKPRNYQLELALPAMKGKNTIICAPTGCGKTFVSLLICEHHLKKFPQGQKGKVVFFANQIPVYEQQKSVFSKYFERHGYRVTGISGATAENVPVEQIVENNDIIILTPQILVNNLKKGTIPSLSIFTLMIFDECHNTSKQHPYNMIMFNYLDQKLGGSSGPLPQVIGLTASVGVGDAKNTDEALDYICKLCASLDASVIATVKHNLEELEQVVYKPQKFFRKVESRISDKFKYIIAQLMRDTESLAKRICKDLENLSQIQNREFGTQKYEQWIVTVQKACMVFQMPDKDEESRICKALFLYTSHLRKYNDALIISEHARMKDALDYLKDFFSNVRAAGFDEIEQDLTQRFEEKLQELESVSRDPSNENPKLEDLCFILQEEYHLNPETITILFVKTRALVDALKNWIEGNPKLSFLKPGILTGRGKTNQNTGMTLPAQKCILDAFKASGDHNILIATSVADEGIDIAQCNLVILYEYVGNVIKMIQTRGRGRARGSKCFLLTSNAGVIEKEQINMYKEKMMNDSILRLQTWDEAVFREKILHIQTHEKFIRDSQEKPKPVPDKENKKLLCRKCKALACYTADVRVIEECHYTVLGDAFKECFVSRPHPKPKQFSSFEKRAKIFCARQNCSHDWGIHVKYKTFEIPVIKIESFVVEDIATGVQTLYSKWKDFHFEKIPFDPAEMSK

RIG-I full length (wt) [3] = target: T3, RIG-I full length (wt) (human, UniProt O95786 1-925); assay: fluorescence anisotropy; no ATP, 15 C; Buffer A (composition not in the material; 150 mM NaCl stated for some supplementary assays); anisotropy at 15 C with 1-2 nM (blunt) or 40 nM (non-blunt) labell; conditions: protein: recombinant, tags: N-terminal SUMO fusion construct, His (Ni-NTA)
T3 sequence: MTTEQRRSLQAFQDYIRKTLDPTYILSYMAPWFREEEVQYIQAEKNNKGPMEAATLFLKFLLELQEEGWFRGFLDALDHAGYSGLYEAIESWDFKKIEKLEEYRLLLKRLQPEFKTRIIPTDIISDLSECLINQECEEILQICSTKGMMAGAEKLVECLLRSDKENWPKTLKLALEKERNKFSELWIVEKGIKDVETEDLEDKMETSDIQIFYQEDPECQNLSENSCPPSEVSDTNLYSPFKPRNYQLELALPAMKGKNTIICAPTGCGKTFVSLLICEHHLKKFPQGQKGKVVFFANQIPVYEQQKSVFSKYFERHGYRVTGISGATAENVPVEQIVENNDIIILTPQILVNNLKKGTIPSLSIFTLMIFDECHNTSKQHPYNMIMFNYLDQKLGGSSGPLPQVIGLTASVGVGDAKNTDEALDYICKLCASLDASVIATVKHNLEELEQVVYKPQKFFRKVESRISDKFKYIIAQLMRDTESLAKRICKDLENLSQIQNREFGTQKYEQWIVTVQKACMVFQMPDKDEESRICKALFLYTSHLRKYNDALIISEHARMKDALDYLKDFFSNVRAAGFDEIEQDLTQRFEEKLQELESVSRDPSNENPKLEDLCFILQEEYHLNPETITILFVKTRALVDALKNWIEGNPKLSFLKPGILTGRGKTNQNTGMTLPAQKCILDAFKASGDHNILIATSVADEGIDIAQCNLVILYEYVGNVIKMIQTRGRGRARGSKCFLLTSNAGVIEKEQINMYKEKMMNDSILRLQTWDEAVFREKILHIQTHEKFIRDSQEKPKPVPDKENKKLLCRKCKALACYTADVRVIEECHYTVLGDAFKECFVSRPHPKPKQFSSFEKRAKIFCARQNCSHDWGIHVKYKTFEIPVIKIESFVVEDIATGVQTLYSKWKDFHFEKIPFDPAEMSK

RIG-I full length (wt) [4] = target: T3, RIG-I full length (wt); assay: ATPase titration (Kd,app); ATP, 37 C; Buffer A (composition not in the material; 150 mM NaCl stated for some supplementary assays); anisotropy at 15 C with 1-2 nM (blunt) or 40 nM (non-blunt) labell; conditions: protein: recombinant, tags: N-terminal SUMO fusion construct, His (Ni-NTA)
RIG-I full length (wt) [5] = target: T3, RIG-I full length (wt); assay: ATPase titration (Kd,app); ATP, 150 mM NaCl, 37 C; Buffer A (composition not in the material; 150 mM NaCl stated for some supplementary assays); anisotropy at 15 C with 1-2 nM (blunt) or 40 nM (non-blunt) labell; conditions: protein: recombinant, tags: N-terminal SUMO fusion construct, His (Ni-NTA)
RIG-I full length (wt) [6] = target: T3, RIG-I full length (wt); assay: ATPase titration (Kd,app); ATP, 15 C; same as Kd without ATP; Buffer A (composition not in the material; 150 mM NaCl stated for some supplementary assays); anisotropy at 15 C with 1-2 nM (blunt) or 40 nM (non-blunt) labell; conditions: protein: recombinant, tags: N-terminal SUMO fusion construct, His (Ni-NTA), none in ATPase assays
[7] = target: T2, Helicase-RD (RIG-I lacking CARDs); assay: stopped-flow kinetics (koff/kon); 15 C; koff 1.5e-3 s-1, kon 6e8 M-1 s-1; Buffer A (composition not in the material; 150 mM NaCl stated for some supplementary assays); anisotropy at 15 C with 1-2 nM (blunt) or 40 nM (non-blunt) labell; conditions: protein: recombinant, tags: N-terminal SUMO fusion construct, His (Ni-NTA), none in ATPase assays
[8] = target: T2, Helicase-RD (RIG-I lacking CARDs); assay: ATPase titration (Kd,app); ATP, 37 C; Buffer A (composition not in the material; 150 mM NaCl stated for some supplementary assays); anisotropy at 15 C with 1-2 nM (blunt) or 40 nM (non-blunt) labell; conditions: protein: recombinant; tags: N-terminal SUMO fusion construct, His (Ni-NTA); single strand
RIG-I full length (wt) [9] = target: T3, RIG-I full length (wt); assay: ATPase titration (Kd,app); ATP, 15 C; Buffer A (composition not in the material; 150 mM NaCl stated for some supplementary assays); anisotropy at 15 C with 1-2 nM (blunt) or 40 nM (non-blunt) labell; conditions: protein: recombinant; tags: N-terminal SUMO fusion construct, His (Ni-NTA); label: fluorescein on strand 2 in fluorescence assays; 3' overhangs 2 nt at both ends, 8 bp
[10] = target: T4, RIG-I C-terminal repressor domain (RD) (human, UniProt O95786 801-925); assay: fluorescence anisotropy; no ATP, 15 C; Buffer A (composition not in the material; 150 mM NaCl stated for some supplementary assays); anisotropy at 15 C with 1-2 nM (blunt) or 40 nM (non-blunt) labell; conditions: protein: recombinant; tags: N-terminal SUMO fusion construct, His (Ni-NTA); label: fluorescein on strand 2 in fluorescence assays; 3' overhangs 2 nt at both ends, 8 bp
T4 sequence: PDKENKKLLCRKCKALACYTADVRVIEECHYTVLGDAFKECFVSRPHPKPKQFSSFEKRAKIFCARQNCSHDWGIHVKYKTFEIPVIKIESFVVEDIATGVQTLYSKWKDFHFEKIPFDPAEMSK

RIG-I full length (wt) [11] = target: T3, RIG-I full length (wt); assay: ATPase titration (Kd,app); ATP, 15 C; Buffer A (composition not in the material; 150 mM NaCl stated for some supplementary assays); anisotropy at 15 C with 1-2 nM (blunt) or 40 nM (non-blunt) labell; conditions: protein: recombinant, tags: N-terminal SUMO fusion construct, His (Ni-NTA), label: fluorescein on strand 2 in fluorescence assays (5' for anisotropy, 3' for intensity), none in ATPase assays
[12] = label: fluorescein on strand 2 in fluorescence assays, 3' overhangs 2 nt at both ends, 8 bp
[13] = label: 5' fluorescein on strand 2 in fluorescence assays, 5' overhangs 2 nt at both ends, 8 bp
[14] = label: fluorescein on strand 2 in fluorescence assays (5' for anisotropy, 3' for intensity), none in ATPase assays, blunt
[15] = hairpin with 5-nt U overhangs at both 5' and 3' ends

B1: 5'OH 3'ovg RNA (dsRNA)
RNA 1: CGUGAGACAU
RNA 2: GUCUCACGUA
[1]; [12]
  Kd: 121 ± 14 nM
[2]; [12]
  Kd: ~1.5 nM

B2: 5'OH 5'ovg RNA (dsRNA)
RNA 1: CGUGAGACAU
RNA 2: UCAUGUCUCA
RIG-I full length (wt) [3]; [13]
  Kd: ~450 nM
[1]; [13]
  Kd: 64 ± 7 nM
[2]; [13]
  Kd: ~1.5 nM

## GAAUAUAAUAGUGAUAUUAUAUUC (structured_RNA, 5'-triphosphate) [5'ppp HP]
RIG-I full length (wt) [4]; hairpin, blunt
  Kd: 6 ± 0.7 nM

## GAAUAUAAUAGUGAUAUUAUAUUC (structured_RNA) [5'OH HP]
RIG-I full length (wt) [4]; hairpin, blunt
  Kd: 39 ± 4 nM

B3: 5'ppp RNA (10-bp blunt) (dsRNA)
RNA 1: CGUGAGACAU
RNA 2: AUGUCUCACG
modifications: 5'-triphosphate on strand 1
RIG-I full length (wt) [5]; none in ATPase assays
  Kd: 90 ± 29 nM
RIG-I full length (wt) [6]
  binding signal: 1 fold Kd,app/Kd without ATP
RIG-I full length (wt) [3]; none in ATPase assays, blunt
  Kd: 0.4 ± 0.2 nM
[7]
  Kd: 0.0025 nM
[1]; none in ATPase assays, blunt
  Kd: 0.1 ± 0.1 nM

B4: 5'ppp RNA 3'F (dsRNA)
RNA 1: CGUGAGACAU
RNA 2: AUGUCUCACG
modifications: 5'-triphosphate on strand 1
RIG-I full length (wt) [5]; label: 3' fluorescein on strand 2
  Kd: 73 ± 18 nM

## CGUGAGACAU (ssRNA, 5'-triphosphate) [5'ppp ss10 RNA]
[8]
  Kd: 500 ± 100 nM

B5: 5'ppp 3'ovg RNA (dsRNA)
RNA 1: CGUGAGACAU
RNA 2: GUCUCACGUA
modifications: 5'-triphosphate on strand 1
RIG-I full length (wt) [9]
  binding signal: ~16 fold Kd,app/Kd without ATP
RIG-I full length (wt) [3]; [12]
  Kd: 3 ± 0.4 nM
[10]
  Kd: 165 ± 2 nM
[1]; [12]
  Kd: 16 ± 4 nM
[2]; [12]
  Kd: ~0.1 nM

## CGUGAGACAU (ssRNA) [5'OH ss10 RNA]
[8]
  Kd: 1600 ± 500 nM

B6: 5'OH RNA (10-bp blunt) (dsRNA)
RNA 1: CGUGAGACAU
RNA 2: AUGUCUCACG
RIG-I full length (wt) [11]
  binding signal: ~2.5 fold Kd,app/Kd without ATP
RIG-I full length (wt) [3]; [14]
  Kd: 6 ± 0.4 nM
[1]; [14]
  Kd: 0.2 ± 0.3 nM
[2]; [14]
  Kd: 0.07 nM

## UUUUUGAAUAUAAUAGUGAUAUUAUAUUCUUUUU (structured_RNA) [dsRNA stem (hairpin with two overhangs)]
RIG-I full length (wt) [4]; [15]
  Kd: 629 ± 165 nM
RIG-I full length (wt) [3]; [15]
  Kd: ~450 nM
[1]; [15]
  Kd: 53 ± 9 nM
[2]; [15]
  Kd: 0.6 ± 0.4 nM

B7: 5'ppp 5'ovg RNA (dsRNA)
RNA 1: CGUGAGACAU
RNA 2: UCAUGUCUCA
modifications: 5'-triphosphate on strand 1
[1]; [13]
  Kd: 43 ± 5 nM
[2]; [13]
  Kd: ~0.1 nM
